Measured values as given in PMC3485013, “Rubber Elongation Factor (REF), a Major Allergen Component in Hevea brasiliensis Latex Has Amyloid Properties” (PLoS ONE, 2012).

Target: the molecule itself
Experiment: aggregation of the purified protein in solution (visible precipitation; aggregates examined by Congo red, CD, ATR-FTIR, TEM, WAXS); protein alone at 20 µM in 1x PBS pH 7.4, 37°C, 3 h, kept at 4°C (legend of Figure 2C: 50 µM)

B1: Rubber Elongation Factor (REF), recombinant 6His-REF (natural protein, Hevea brasiliensis, UniProt P15252 1-138, looked up)
chain: MAEDEDNQQGQGEGLKYLGFVQDAATYAVTTFSNVYLFAKDKSGPLQPGVDIIEGPVKNVAVPLYNRFSYIPNGALKFVDSTVVASVTIIDRSLPPIVKDASIQVVSAIRAAPEAARSLASSLPGQTKILAKVFYGEN
notes: gene synthesised after codon optimisation from GenBank X56535; No removal of the tag is described, and the same preparation is detected by anti-His antibody in the lipid dot blots; also called Hevb1; HbREF; source: E. coli BL21 (DE3) pLysS Gold, inclusion bodies, purified (Ni-NTA in 8 M urea, dialysed against buffer A); not shown: His6, N-terminal, kept
binding result: binds
